Each block holds one molecule with its values, some of them ahead of it.
How the values were obtained:
activin = test: ActRIIB-Fc affinity for ligand (description); assay type: binding; details: ascertained by Applicants
GDF11 [1] = target: T1, GDF11 (Homo sapiens, UniProt O95390); test: ActRIIB-Fc affinity for ligand (description); assay type: binding; details: ascertained by Applicants
T1 sequence (O95390 299-407): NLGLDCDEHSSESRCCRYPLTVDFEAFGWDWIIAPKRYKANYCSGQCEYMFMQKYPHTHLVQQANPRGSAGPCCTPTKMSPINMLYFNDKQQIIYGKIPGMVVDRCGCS

GDF8 [2] = target: T2, GDF8 (Homo sapiens, UniProt O14793); test: Biacore assay, receptor captured with anti-hFc antibody; assay type: binding
T2 sequence (O14793 267-375): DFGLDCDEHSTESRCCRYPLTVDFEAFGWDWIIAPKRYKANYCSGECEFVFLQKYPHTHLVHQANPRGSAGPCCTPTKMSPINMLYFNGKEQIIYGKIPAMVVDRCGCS
Experimental: (§1) Binding of certain ActRIIB-Fc proteins and GDF traps to ligands was tested in a Biacore assay.
(§2) The ActRIIB-Fc variants or wild-type protein were captured onto the system using an anti-hFc antibody. Ligands were injected and flowed over the captured receptor proteins.

GDF11 [3] = target: T1, GDF11; test: as above; assay type: binding
Experimental: as §1, §2

activin A [4] = target: T3, activin A (Homo sapiens, UniProt P08476); test: as above; assay type: binding
T3 sequence (P08476 311-426): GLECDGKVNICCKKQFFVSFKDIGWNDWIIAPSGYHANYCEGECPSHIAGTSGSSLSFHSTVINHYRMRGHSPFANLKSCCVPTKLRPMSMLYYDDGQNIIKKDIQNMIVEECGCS
Experimental: as §1, §2

activin B = target: T4, activin B (Homo sapiens, UniProt P09529); test: Biacore-based binding assay, receptor captured with anti-Fc antibody
T4 sequence (P09529 293-407): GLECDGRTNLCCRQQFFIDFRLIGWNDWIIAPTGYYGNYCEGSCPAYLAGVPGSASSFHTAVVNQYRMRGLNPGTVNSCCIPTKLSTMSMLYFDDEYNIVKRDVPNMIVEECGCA
Experimental: (§3) A Biacore™-based binding assay was used to compare ligand binding selectivity of the ALK4-Fc:ActRIIB-Fc heterodimeric complex described above with that of ActRIIB-Fc and ALK4-Fc homodimer complexes. The ALK4-Fc:ActRIIB-Fc heterodimer, ActRIIB-Fc homodimer, and ALK4-Fc homodimer were independently captured onto the system using an anti-Fc antibody. Ligands were injected and allowed to flow over the captured receptor protein. Results are summarized in the table below, in which ligand off-rates (kd) most indicative of effective ligand traps are denoted in bold font.

GDF8 [5] = target: T2, GDF8; test: as above
Experimental: as §3

GDF11 [6] = target: T1, GDF11; test: as above
Experimental: as §3

activin A [7] = target: T3, activin A; test: as above
Experimental: as §3

B1: A64 20-134: ActRIIB-Fc, amino acids 20-134 of SEQ ID NO: 1 with alanine at position 64 (protein)
chain: GRGEAETRECIYYNANWELERTNQSGLERCEGEQDKRLHCYASWANSSGTIELVKKGCWLDDFNCYDRQECVATEENPQVYFCCCEGNFCNERFTHLPEAGGPEVTYEPPPTAPT
modifications: Fc fusion partner without entry
affinity for activin (activin): relatively low affinity | affinity for GDF11 (GDF11 [1]): relatively low affinity

B2: ActRIIB(L79D 20-134)-hFc: GDF trap: ActRIIB amino acids 20-134 with L79D substitution fused to human Fc (SEQ ID NO: 46) (protein)
chain: GRGEAETRECIYYNANWELERTNQSGLERCEGEQDKRLHCYASWRNSSGTIELVKKGCWDDDFNCYDRQECVATEENPQVYFCCCEGNFCNERFTHLPEAGGPEVTYEPPPTAPTGGGTHTCPPCPAPELLGGPSVFLFPPKPKDTLMISRTPEVTCVVVDVSHEDPEVKFNWYVDGVEVHNAKTKPREEQYNSTYRVVSVLTVLHQDWLNGKEYKCKVSNKALPVPIEKTISKAKGQPREPQVYTLPPSREEMTKNQVSLTCLVKGFYPSDIAVEWESNGQPENNYKTTPPVLDSDGSFFLYSKLTVDKSRWQQGNVFSCSVMHEALHNHYTQKSLSLSPGK
Koff, GDF8 (GDF8 [2]): 0.00083 s⁻¹ | Koff, GDF11 (GDF11 [3]): 0.000439 s⁻¹ | KD, Activin A (activin A [4]): Low binding

B4: ActRIIB(A24N 20-134)-hFc: ActRIIB(20-134)-hFc variant with A24N mutation (protein)
chain: GRGENETRECIYYNANWELERTNQSGLERCEGEQDKRLHCYASWRNSSGTIELVKKGCWLDDFNCYDRQECVATEENPQVYFCCCEGNFCNERFTHLPEAGGPEVTYEPPPTAPTGGGTHTCPPCPAPELLGGPSVFLFPPKPKDTLMISRTPEVTCVVVDVSHEDPEVKFNWYVDGVEVHNAKTKPREEQYNSTYRVVSVLTVLHQDWLNGKEYKCKVSNKALPVPIEKTISKAKGQPREPQVYTLPPSREEMTKNQVSLTCLVKGFYPSDIAVEWESNGQPENNYKTTPPVLDSDGSFFLYSKLTVDKSRWQQGNVFSCSVMHEALHNHYTQKSLSLSPGK
Koff, GDF11 (GDF11 [3]): 6.35e-05 s⁻¹ | Koff, Activin A (activin A [4]): 0.000346 s⁻¹ | Kon, Activin A (activin A [4]): 3.34e+06 M⁻¹ s⁻¹

B7: ALK4-Fc homodimer: homodimer complex of ALK4-Fc fusion polypeptide (protein)
chain: SGPRGVQALLCACTSCLQANYTCETDGACMVSIFNLDGMEHHVRTCIPKVELVPAGKPFYCLSSEDLRNTHCCYTDYCNRIDLRVPSGHLKEPEHPSMWGPVE
modifications: left off: a dimerising Fc or GST
notes: homodimer complex of ALK4-Fc fusion polypeptide
KD, Activin B (activin B): No binding | ka, GDF8 (GDF8 [5]): 130000 M⁻¹ s⁻¹ | kd, GDF8 (GDF8 [5]): 0.0019 s⁻¹ | ka, GDF11 (GDF11 [6]): 4.8e+06 M⁻¹ s⁻¹ | kd, GDF11 (GDF11 [6]): 0.0048 s⁻¹ | ka, Activin A (activin A [7]): 580000 M⁻¹ s⁻¹ | kd, Activin A (activin A [7]): 0.012 s⁻¹

Other lines, results leading:

Koff, GDF8 (GDF8 [2]): 0.0009 s⁻¹ | Koff, GDF11 (GDF11 [3]): 0.000274 s⁻¹ | KD, Activin A (activin A [4]): Low binding
B3: ActRIIB(L79E 20-134)-hFc: GDF trap form with a glutamate rather than an aspartate at position 79, human Fc fusion (protein)
chain: GRGEAETRECIYYNANWELERTNQSGLERCEGEQDKRLHCYASWRNSSGTIELVKKGCWEDDFNCYDRQECVATEENPQVYFCCCEGNFCNERFTHLPEAGGPEVTYEPPPTAPTGGGTHTCPPCPAPELLGGPSVFLFPPKPKDTLMISRTPEVTCVVVDVSHEDPEVKFNWYVDGVEVHNAKTKPREEQYNSTYRVVSVLTVLHQDWLNGKEYKCKVSNKALPVPIEKTISKAKGQPREPQVYTLPPSREEMTKNQVSLTCLVKGFYPSDIAVEWESNGQPENNYKTTPPVLDSDGSFFLYSKLTVDKSRWQQGNVFSCSVMHEALHNHYTQKSLSLSPGK

Koff, GDF8 (GDF8 [2]): 0.00018 s⁻¹ | Koff, Activin A (activin A [4]): 0.000417 s⁻¹ | Kon, Activin A (activin A [4]): 5.02e+06 M⁻¹ s⁻¹
B5: ActRIIB(P129S, P130R 20-134)-hFc: ActRIIB(20-134)-hFc variant with P129S and P130R mutations (protein)
chain: GRGEAETRECIYYNANWELERTNQSGLERCEGEQDKRLHCYASWRNSSGTIELVKKGCWLDDFNCYDRQECVATEENPQVYFCCCEGNFCNERFTHLPEAGGPEVTYEPSRTAPTGGGTHTCPPCPAPELLGGPSVFLFPPKPKDTLMISRTPEVTCVVVDVSHEDPEVKFNWYVDGVEVHNAKTKPREEQYNSTYRVVSVLTVLHQDWLNGKEYKCKVSNKALPVPIEKTISKAKGQPREPQVYTLPPSREEMTKNQVSLTCLVKGFYPSDIAVEWESNGQPENNYKTTPPVLDSDGSFFLYSKLTVDKSRWQQGNVFSCSVMHEALHNHYTQKSLSLSPGK

Koff, GDF8 (GDF8 [2]): 4.71e-05 s⁻¹ | Koff, GDF11 (GDF11 [3]): 2.41e-05 s⁻¹ | Koff, Activin A (activin A [4]): 0.000325 s⁻¹ | Kon, Activin A (activin A [4]): 6.82e+06 M⁻¹ s⁻¹
B6: ActRIIB(R64K 20-134)-hFc: ActRIIB(20-134)-hFc variant with R64K mutation (protein)
chain: GRGEAETRECIYYNANWELERTNQSGLERCEGEQDKRLHCYASWKNSSGTIELVKKGCWLDDFNCYDRQECVATEENPQVYFCCCEGNFCNERFTHLPEAGGPEVTYEPPPTAPTGGGTHTCPPCPAPELLGGPSVFLFPPKPKDTLMISRTPEVTCVVVDVSHEDPEVKFNWYVDGVEVHNAKTKPREEQYNSTYRVVSVLTVLHQDWLNGKEYKCKVSNKALPVPIEKTISKAKGQPREPQVYTLPPSREEMTKNQVSLTCLVKGFYPSDIAVEWESNGQPENNYKTTPPVLDSDGSFFLYSKLTVDKSRWQQGNVFSCSVMHEALHNHYTQKSLSLSPGK

Koff, GDF8 (GDF8 [2]): 0.000209 s⁻¹ | Koff, Activin A (activin A [4]): 0.000628 s⁻¹ | Kon, Activin A (activin A [4]): 7.46e+06 M⁻¹ s⁻¹
B8: ActRIIB(R64K 20-129)-hFc: ActRIIB(20-129)-hFc variant with R64K mutation (protein)
chain: GRGEAETRECIYYNANWELERTNQSGLERCEGEQDKRLHCYASWKNSSGTIELVKKGCWLDDFNCYDRQECVATEENPQVYFCCCEGNFCNERFTHLPEAGGPEVTYEPPGGGTHTCPPCPAPELLGGPSVFLFPPKPKDTLMISRTPEVTCVVVDVSHEDPEVKFNWYVDGVEVHNAKTKPREEQYNSTYRVVSVLTVLHQDWLNGKEYKCKVSNKALPVPIEKTISKAKGQPREPQVYTLPPSREEMTKNQVSLTCLVKGFYPSDIAVEWESNGQPENNYKTTPPVLDSDGSFFLYSKLTVDKSRWQQGNVFSCSVMHEALHNHYTQKSLSLSPGK

Source: patent publication US10973880B2, “Compositions and methods for treating pulmonary hypertension” (Acceleron Pharma Inc., priority 2016, dated 2021)
